From the supplement of paper PMC9170038 come the findings set out here.

The test system of the series is MS2 coat protein. The experiment in a line: apparent KD of MS2 coat protein; designed switch direction (-1 OFF switch, 1 ON switch): -1; higher = weaker reporter binding. The essentials: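 Transcription of designed RNA switches on Illumina chips was done by stalled E. coli RNA polymerase. SNAP-549-labelled MS2 coat protein was then titrated in doubling steps from 0.7 or 1.5 nM to 3 µM, with steps of 0.8–1.5 h at the lowest and 10–20 min at the highest concentration. The per-design median over clusters of curve-fitted normalised fluorescence is reported as apparent KD.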

Where [1] appears, read: input ligand: microRNA oligo, concentration not stated.
[2] abbreviates: Eterna round: R95, input ligand: FMN 200 uM.
Where [3] appears, read: Eterna round: R95, input ligand: microRNA oligo, concentration not stated.
Where [4] appears, read: Eterna round: R95, input ligand: none.

Consider “UUUAAUUUAAUUAAGAUCACAUGAGGAUCACCCAUGUAUAUAUAGGAUAUCAGCUCGAUUAGAGCUGAGAAGGAUAUAUACAUA [ExNG3/4-A1] (Eterna round: R96, puzzle: Exclusion NG 3)”, for which the “apparent KD of MS2 coat protein” value (input ligand: FMN 200 uM) turned out to be 164 nM, the “apparent KD of MS2 coat protein” value under setting [1] was 215 nM and the “apparent KD of MS2 coat protein” value (input ligand: none) came to 58.9 nM.
As for “UUUAAUUUUUUUUUUUUACAAGCUUUUUGCUCGUCUUAUACAUGAGGAUCACCCAUGUAAAUGGAAGAUAAAUUAUC [JMF 7] (puzzle: Sensor v3, turn-off variant 2)”, the “apparent KD of MS2 coat protein” value stood at 16.7 nM under setting [2], 18.1 nM under setting [3] and 17.3 nM under setting [4].
In the same order, the values of “UUUAAUUUUUUUUUUUUACAAGCUUUUUGCUCGUCUUAUACAUGAGGAUCACCCAUGUAGGUGGGAGGUAAAUUAUC [JMF 79] (puzzle: Sensor v3, turn-off variant 2)” are 40.8 nM, 116 nM and 43.8 nM.
In the same order, the values of “UUUAAUUUUUUUUUUUUACAAGCUUUUUGCUCGUCUUAUACAUGAGGAUCACCCAUGUGAGUGAGGGAUAAAUUAUC [JMF 41] (puzzle: Sensor v3, turn-off variant 2)” are 19.4 nM, 23.9 nM and 16.7 nM.
As to “UUUAAUUUUUUUUUUUUACAAGCUUUUUGCUCGUCUUAUACAUGAGGAUCACCCAUGUGGAUGGAGGGUAAAUUAUC [JMF 85] (puzzle: Sensor v3, turn-off variant 2)”, the “apparent KD of MS2 coat protein” value is, setting by setting: under setting [2], 14.4 nM; under setting [3], 25.6 nM; under setting [4], 16.9 nM.
Turning to “UUUAAUUUUUUUUUUUUACAAGCUUUUUGCUCGUCUUAUACAUGAGGAUCACCCAUGUGGAUGGGAAAUGAAUUAUC [JMF 97] (puzzle: Sensor v3, turn-off variant 2)”, the “apparent KD of MS2 coat protein” value was found to be 18.6 nM under setting [2], 115 nM under setting [3] and 19.7 nM under setting [4].
Turning to “UUUACAAGCUAUUGAUCCCACAUGAGGAUCACCCAUGUUGCUGCCGGUGACGGUAGCAUAACAAUUGCUCGUCUUAU [JL TOV1 3.56] (Eterna round: R97, puzzle: Sensor, turn-off variant 1)”, the “apparent KD of MS2 coat protein” value (input ligand: FMN 200 uM) was determined as 660 nM and the “apparent KD of MS2 coat protein” value (input ligand: none) was determined as 797 nM.
In the same order, the values of “UUUACAAGCUUAUGAUCCCACAUGAGGAUCACCCAUGUUGCUGCCGUGAGGUAGCUUUUAACAUAUGCUCGUCUUAU [JL TOV1 3.39] (Eterna round: R97, puzzle: Sensor, turn-off variant 1)” are 764 nM and 838 nM.
In the same order, the values of “UUUAGUCGUGACAUGGGUGACAUGAGGAUCACCCAUGUCACAAGCUUGUUGCUCGUCUUAUAAUUAACCCAUGUCAC [LRO Sensor-off var1-15 mod of Stov1-13-A1 by Brourd] (Eterna round: R97, puzzle: Sensor, turn-off variant 1)” are 19.3 nM and 19.6 nM.
“UUUAGUUCAGGAUAUGUAGAUUUUAACAUGAGGAUCACCCAUGUAGAUCCUGAAUUAACUACAGAAGGGAACAUUC [Exclusion 5: 2:c] (Eterna round: R96, puzzle: Exclusion 5)”: the “apparent KD of MS2 coat protein” value runs as follows: (input ligand: FMN 200 uM) 50.8 nM; under setting [1], 15.6 nM; (input ligand: none) 20.7 nM.
Take “UUUAGUUCAGGAUAUGUAGAUUUUAACAUGAGGAUCACCCAUGUAGAUCCUGAAUUAACUACAGAAGGGAACAUUC [Exclusion 5: 2:c] (puzzle: Exclusion 5)”: the “apparent KD of MS2 coat protein” value under setting [3] was 20.9 nM.
Consider “UUUAUAAUUUCAAUCUUCGCCAACAAACUUACGCUGGCCACAUGAGGAUCACCCAUGUUUUUUGUUCGUUUUAUUCU [Veorenxere] (Eterna round: R96, puzzle: Sensor v3, turn-off variant 2)”, for which the “apparent KD of MS2 coat protein” value (input ligand: FMN 200 uM) came out at 25 nM, the “apparent KD of MS2 coat protein” value under setting [1] stood at 62.2 nM and the “apparent KD of MS2 coat protein” value (input ligand: none) was found to be 27.1 nM.
As for “UUUAUAAUUUCAAUCUUCGCCAACAAACUUACGCUGGCCACAUGAGGAUCACCCAUGUUUUUUGUUCGUUUUAUUCU [Veorenxere] (puzzle: Sensor v3, turn-off variant 2)”, the “apparent KD of MS2 coat protein” value worked out at 18.8 nM under setting [2], 56.4 nM under setting [3] and 21.9 nM under setting [4].
